Source: patent US20140193400A1 (ESBATECH AN ALCON BIOMEDICAL RESEARCH UNIT, published 2014)
Values joined by “and” are separate entries in the source; they are usually repeats but may differ in a detail not shown here. Equal entries are not always repeated.

How the values were obtained:
[1] = molecular target: T1, recombinant human TNFalpha (human, UniProt P01375 77-233); test: cell-based or functional assay
[2] = molecular target: T2, Human TNFa N-his trimers (His-tagged TNF, produced at ESBATech) (human, UniProt P01375 77-233); test: SPR (BIAcore), His-tagged human TNF captured on NTA chip, scFv as analyte; units taken from paragraph 184
T2 construct: Captured as trimers on a Ni-NTA sensor chip by the N-terminal His tags in the Biacore assay of the general methods; also called human TNFα; human TNF alpha; not shown: N-terminal His tag
T2 sequence (P01375 77-233 limits assumed): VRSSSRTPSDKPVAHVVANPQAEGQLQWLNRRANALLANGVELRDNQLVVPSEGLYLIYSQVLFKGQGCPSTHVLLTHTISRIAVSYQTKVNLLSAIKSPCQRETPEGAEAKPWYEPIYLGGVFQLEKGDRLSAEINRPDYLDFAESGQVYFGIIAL
Description: (§1) For binding affinity measurements at pH5 and pH 7.4 (data not shown), surface Plasmon resonance measurements with BIAcore™-T 100 were employed using a NTA sensor chip and His-tagged TNF (produced at ESBATech). The surface of the NTA sensor chip consists of a carboxymethylated dextran matrix pre-immobilized with nitrilotriacetic acid (NTA) for capture of histidine tagged molecules via Ni2+NTA chelation. Human TNFa N-his trimers (5 nM) are captured by the nickel via their N-terminal his-tags and ESBA105 (analyte) is injected at several concentrations ranging from 30 nM to 0.014 nM in 3 fold serial dilution steps. At the regeneration step, the complex formed by nickel, ligand and analyte is washed away. This allows the use of the same regeneration conditions for different samples. The response signal is generated by surface Plasmon resonance (SPR) technology and measured in resonance units (RU). All the measurements are performed at 25° C. Sensorgrams were generated for each anti-TNF scFv sample after in-line reference cell correction followed by buffer sample subtraction. The apparent dissociation rate constant (kd), the apparent association rate constant (kₐ) and the apparent dissociation equilibrium constant (KD) were calculated using one-to-one Langmuir binding model with BIAcore T100 evaluation Software version 1.1.

[3] = molecular target: T2, Human TNFa N-his trimers (His-tagged …); test: SPR (BIAcore T100), His-tagged human TNF captured on NTA chip, scFv as analyte
Description: as §1

[4] = molecular target: T1, recombinant human TNFalpha; test: cell-based or functional assay; remark: listed apart in the source

T1 sequence (P01375 77-233 limits assumed): as above

| Kd [3] [nM] | koff [3] [s⁻¹] | kon [3] [M⁻¹ s⁻¹] | L929* [EC50-E105/EC50-X], potency relative to ESBA105 [4] | Binder | further results |
| --- | --- | --- | --- | --- | --- |
| 58.7 | 0.00835 | 142000 |  | EP42_min (scFv, scFv NH2-VL-(GGGGS)4-VH-COOH; also called 1076) scFv: EIVMTQSPSTLSASVGDRVIITCQSTESVYKNNYLAWYQQKPGKAPKLLIYDASTLASGVPSRFSGSGSGAEFTLTISSLQPDDFATYYCAGYYRSGFGTANGSFGQGTKLTVLGGGGGSGGGGSGGGGSGGGGSEVQLVESGGGLVQPGGSLRLSCAASGFTFRNDAISWVRQAPGKGLEWVSYISDWGIKYYASWVKGRFTISRDNSKNTLYLQMNSLRAEDTAVYYCAKGAPGAGDNGIWGQGTLVTVSS |  |
| 0.0286 | 1.68e-05 | 586000 | 10.5 ratio EC50 ESBA105/EC50 X (mass units, ng/ml) | EP34_max (scFv, scFv NH2-VL-(GGGGS)4-VH-COOH; also called Epi34max; 791) scFv: EIVMTQSPSTLSASLGDRVIITCQSSQSVYGNIWMAWYQQKSGKAPKLLIYQASKLASGVPSRFSGSGSGAEFSLTISSLQPDDFATYYCQGNFNTGDRYAFGQGTKLTVLGGGGGSGGGGSGGGGSGGGGSEVQLVESGGGLVQPGGSLRLSCTASGFTISRSYWICWVRQAPGKGLEWVACIYGDNDITPLYANWAKGRFPVSTDTSKNTVYLQMNSLRAEDTAVYYCARLGYADYAYDLWGQGTLVTVSS | IC50, block of cytotoxic activity (human Kym-1 cells, 10 pg/ml TNF) [1]: 0.69 ng/mL and 0.63 ng/mL; IC50, block of cytotoxic activity (murine L929 cells, 1000 pg/ml TNF) [1]: 1.03 ng/mL and 1.04 ng/mL |
| 3.46 | 0.000419 | 121000 |  | EP42_max (scFv, scFv NH2-VL-(GGGGS)4-VH-COOH; also called 1077) scFv: EIVMTQSPSTLSASVGDRVIITCQSTESVYKNNYLAWYQQKPGKAPKLLIYDASTLASGVPSRFSGSGSGTEFTLTISSLQPDDFATYYCAGYYRSGFGTANGSFGQGTKLTVLGGGGGSGGGGSGGGGSGGGGSEVQLVESGGGSVQPGGSLRLSCTVSGIDLRNDAISWVRQAPGKGLEWVSYISDWGIKYYASWVKGRFTISKDTSKNTVYLQMNSLRAEDTATYYCARGAPGAGDNGIWGQGTTVTVSS |  |
| 262 | 0.041 | 157000 |  | EP15_min (scFv, scFv NH2-VL-(GGGGS)4-VH-COOH; also called 1073) scFv: EIVMTQSPSTLSASVGDRVIITCQASENIYTSLAWYQQKPGKAPKLLIYSASTLASGVPSRFSGSGSGAEFTLTISSLQPDDFATYYCQQGFATSNVENPFGQGTKLTVLGGGGGSGGGGSGGGGSGGGGSEVQLVESGGGLVQPGGSLRLSCAASGFTFSRYGVSWVRQAPGKGLEWVSAIGETGRAYYANWAKSRFTISRDNSKNTLYLQMNSLRAEDTAVYYCAKGEEFNNGWGAFNIWGQGTLVTVSS |  |
| 0.194 | 0.00015 | 772000 | 5.2 ratio EC50 ESBA105/EC50 X (mass units, ng/ml) | EP35_max (scFv, scFv NH2-VL-(GGGGS)4-VH-COOH; also called 1089) scFv: EIVMTQSPSTLSASVGDRVIITCQASQSISNLLAWYQQKPGKAPKLLIVAASKLASGVPSRFSGSGSGTEFTLTISSLQPDDFATYYCQQGWSHTNVDNTFGQGTKLTVLGGGGGSGGGGSGGGGSGGGGSEVQLVESGGGSVQPGGSLRLSCTASGFSFSVGYWICWVRQAPGKGLEWVACIDAGTSGGTYYATWAKGRFTISKDTSKNTVYLQMNSLRAEDTATYYCARGVSSNGYYFKLWGQGTTVTVSS |  |

More lines, now with the values behind:

| Binder | Kd [3] [nM] | koff [3] [s⁻¹] | kon [3] [M⁻¹ s⁻¹] | L929* [EC50-E105/EC50-X], potency relative to ESBA105 [4] | further results |
| --- | --- | --- | --- | --- | --- |
| ESBA105 (scFv) MADIVMTQSPSSLSASVGDRVTLTCTASQSVSNDVVWYQQRPGKAPKLLIYSAFNRYTGVPSRFSGRGYGTDFTLTISSLQPEDVAVYYCQQDYNSPRTFGQGTKLEVKRGGGGSGGGGSGGGGSSGGGSQVQLVQSGAEVKKPGASVKVSCTASGYTFTHYGMNWVRQAPGKGLEWMGWINTYTGEPTYADKFKDRFTFSLETSASTVYMELTSLTSDDTAVYYCARERGDAMDYWGQGTLVTVSS |  |  |  |  | EC50, L929 potency assay [1]: 6.5 ng/mL |
| EP43_maxmin (scFv, also called 959) scFv: EIVMTQSPSTLSASVGDRVIIKCQASQSISDWLAWYQQKPGKAPKLLIYGASRLASGFPSRFSGSGSGAEFTLTISGLEPADFATYYCQQGWSDSYVDNLFGQGTKLTVLGGGGGSGGGGSGGGGSGGGGSEVQLVESGGGLVQPGGSLRLSCAASGFSLSSGAMSWVRQAPGKGLEWVSVIISSGATYYASWAKGRFTISRDNSKNTLYLQMNSLRAEDTAVYYCAKGGPDDSNSMGTFDPWGQGTLVTVSS |  |  |  |  | Kd [2]: 36.6 nM; koff [2]: 0.00533 s⁻¹; kon [2]: 146000 M⁻¹ s⁻¹ |
| EP43_min (scFv, scFv NH2-VL-(GGGGS)4-VH-COOH; also called 705) scFv: EIVMTQSPSTLSASVGDRVIITCQASQSISDWLAWYQQKPGKAPKLLIYGASRLASGVPSRFSGSGSGAEFTLTISSLQPDDFATYYCQQGWSDSYVDNLFGQGTKLTVLGGGGGSGGGGSGGGGSGGGGSEVQLVESGGGLVQPGGSLRLSCAASGFSLSSGAMSWVRQAPGKGLEWVSVIISSGATYYASWAKGRFTISRDNSKNTLYLQMNSLRAEDTAVYYCAKGGPDDSNSMGTFDPWGQGTLVTVSS | 5540 | 0.0298 | 5380 |  |  |
| EP15_max (scFv, scFv NH2-VL-(GGGGS)4-VH-COOH; also called 1074) scFv: EIVMTQSPSTLSASVGDRVIITCQASENIYTSLAWYQQKPGKAPKLLIYSASTLASGVPSRFSGSGSGTEFTLTISSLQPDDFATYYCQQGFATSNVENPFGQGTKLTVLGGGGGSGGGGSGGGGSGGGGSEVQLVESGGGSVQPGGSLRLSCTVSGFSLSRYGVSWVRQAPGKGLEWVGAIGETGRAYYANWAKSRSTISRDTSKNTVYLQMNSLRAEDTATYYCARGEEFNNGWGAFNIWGQGTTVTVSS | 1.48 | 0.00226 | 1.53e+06 | 0.39 ratio EC50 ESBA105/EC50 X (mass units, ng/ml) |  |
| EP1_max (scFv, scFv NH2-VL-(GGGGS)4-VH-COOH; also called 1072) scFv: EIVMTQSPSTLSASVGDRVIITCQSTESVYKNNYLAWYQQKPGKAPKLLIYDASTLASGVPSRFSGSGSGTEFTLTISSLQPDDFATYYCAGYYRSGSGTANGSFGQGTKLTVLGGGGGSGGGGSGGGGSGGGGSEVQLVESGGGSVQPGGSLRLSCTVSGIDLSNDAISWVRQAPGKGLEWVAYISDWSIRYYANWAQGRFTISKDTSKNTVYLQMNSLRAEDTATYYCARGAPGAGDNGIWGQGTTVTVSS | 56.9 | 0.00063 | 11100 |  |  |
| EP19_max (scFv, also called 1007; EP19maxmod) scFv: EIVMTQSPSTLSASVGDRVIITCQASDNIYRGLAWYQQKPGKAPKLLIYDASTLQSGVPSRFSGSGSGTQFTLTISSLQPDDFATYYCLGVYGYSSDDGAAFGQGTKLTVLGGGGGSGGGGSGGGGSGGGGSEVQLVESGGGLVQPGGSLRLSCTVSGFSLNSNEISWVRQAPGKGLEWVGYIGNGGMTHYASWAKGRFTISRDTSKNTVYLQMNSLRAEDTAVYYCASSVEYTDLYYLNIWGQGTLVTVSS | 2.91 | 6.54e-05 | 22500 | 0.6 ratio EC50 ESBA105/EC50 X (mass units, ng/ml) |  |
| EP6_min (scFv, scFv NH2-VL-(GGGGS)4-VH-COOH; also called 673) scFv: EIVMTQSPSTLSASVGDRVIITCQASESIYSGLAWYQQKPGKAPKLLIYQASTLASGVPSRFSGSGSGAEFTLTISSLQPDDFATYYCQQGFGTSNVENPFGQGTKLTVLGGGGGSGGGGSGGGGSGGGGSEVQLVESGGGLVQPGGSLRLSCAASGFSLSRYGVSWVRQAPGKGLEWVSTIGEAGRAYYANWARSRFTISRDNSKNTLYLQMNSLRAEDTAVYYCAKGEVFNNGWGAFNIWGQGTLVTVSS | 106 | 0.00494 | 46700 |  |  |
| EP6_max (scFv, scFv NH2-VL-(GGGGS)4-VH-COOH; also called 674) scFv: EIVMTQSPSTLSASVGDRVIITCQASESIYSGLAWYQQKPGKAPKLLIYQASTLASGVPSRFSGSGSGTDFTLAISSLQPDDFATYYCQQGFGTSNVENPFGQGTKLTVLGGGGGSGGGGSGGGGSGGGGSEVQLVESGGGLVQPGGSLRLSCTVSGFSLSRYGVSWVRQAPGKGLEWVGTIGEAGRAYYANWARSRSTISRDTSKNTVYLQMNSLRAEDTAVYYCARGEVFNNGWGAFNIWGQGTLVTVSS | 0.512 | 0.000145 | 284000 | 1.1 ratio EC50 ESBA105/EC50 X (mass units, ng/ml) |  |
